Experimental data from ChEMBL document CHEMBL1142160, “Overexpression and initial characterization of the chromosomal aminoglycoside 3'-O-phosphotransferase APH(3')-IIb from Pseudomonas aeruginosa” (2007).

Experiments:
[1] = substrate: NCC[C@H](O)C(=O)N[C@@H]1C[C@H](N)[C@@H](O[C@H]2O[C@H](CN)[C@@H](O)[C@H](O)[C@H]2O)[C@H](O)[C@H]1O[C@H]1O[C@H](CO)[C@@H](O)[C@H](N)[C@H]1O; experiment: (§1) Ratio of kcat to km for PH(3')-2b activity; details: Pseudomonas aeruginosa
[2] = substrate: NC[C@@H]1O[C@@H](O[C@H]2[C@H](O)[C@@H](O[C@H]3O[C@H](CO)[C@@H](O)[C@H](N)[C@H]3O)[C@H](N)C[C@@H]2N)[C@@H](O)[C@H](O)[C@H]1O; experiment: as §1; details: Pseudomonas aeruginosa
[3] = substrate: NC[C@@H]1O[C@H](O[C@H]2[C@@H](O)[C@H](O[C@@H]3[C@@H](O)[C@H](N)C[C@H](N)[C@H]3O[C@H]3O[C@H](CN)[C@@H](O)[C@H](O)[C@H]3N)O[C@@H]2CO)[C@H](N)[C@@H](O)[C@@H]1O; experiment: as §1; details: Pseudomonas aeruginosa
[4] = substrate: NC[C@H]1O[C@H](O[C@H]2[C@H](O)[C@@H](O)[C@H](N)C[C@@H]2N)[C@H](N)[C@@H](O)[C@@H]1O; experiment: as §1; details: Pseudomonas aeruginosa
[5] = substrate: NC[C@H]1O[C@H](O[C@H]2[C@H](O[C@@H]3O[C@H](CO)[C@@H](O)[C@H]3O)[C@@H](O)[C@H](N)C[C@@H]2N)[C@H](N)[C@@H](O)[C@@H]1O; experiment: as §1; details: Pseudomonas aeruginosa
[6] = substrate: NCC[C@H](O)C(=O)N[C@@H]1C[C@H](N)[C@@H](O[C@H]2O[C@H](CN)[C@@H](O)[C@H](O)[C@H]2O)[C@H](O)[C@H]1O[C@H]1O[C@H](CO)[C@@H](O)[C@H](N)[C@H]1O; experiment: (§2) Activity against Pseudomonas aeruginosa APH(3')-2b expressed in Escherichia coli BL21(DE3) assessed as phosphorylation
[7] = substrate: NC[C@@H]1O[C@@H](O[C@H]2[C@H](O)[C@@H](O[C@H]3O[C@H](CO)[C@@H](O)[C@H](N)[C@H]3O)[C@H](N)C[C@@H]2N)[C@@H](O)[C@H](O)[C@H]1O; experiment: as §2
[8] = substrate: NC[C@@H]1O[C@H](O[C@H]2[C@@H](O)[C@H](O[C@@H]3[C@@H](O)[C@H](N)C[C@H](N)[C@H]3O[C@H]3O[C@H](CN)[C@@H](O)[C@H](O)[C@H]3N)O[C@@H]2CO)[C@H](N)[C@@H](O)[C@@H]1O; experiment: as §2
[9] = substrate: NC[C@H]1O[C@H](O[C@H]2[C@H](O)[C@@H](O)[C@H](N)C[C@@H]2N)[C@H](N)[C@@H](O)[C@@H]1O; experiment: as §2
[10] = substrate: NC[C@H]1O[C@H](O[C@H]2[C@H](O[C@@H]3O[C@H](CO)[C@@H](O)[C@H]3O)[C@@H](O)[C@H](N)C[C@@H]2N)[C@H](N)[C@@H](O)[C@@H]1O; experiment: as §2

B1: Aminoglycoside 3'-phosphotransferase type IIb (Pseudomonas aeruginosa (strain ATCC 15692 / PAO1 / 1C / PRS 101 / LMG12228)), Q9HWR2 (protein)
chain: MHDAATSMPPQAPSTWADYLAGYRWRGQGEGCSAATVHRLEAARRPTLFVKQEVLSAHAELPAEIARLRWLHGAGIDCPQVLNETQSDGRQWLLMSAVPGDTLSALAQRGELEPERLVRLVAAALRRLHDLDPAACPFDHRLERRLDTVRQRVEAGLVDEADFDDDHRGRSATELYRLLLDRRPAVEDLVVAHGDACLPNLLAEGRRFSGFIDCGRLGVADRHQDLALAARDIEAELGAAWAEAFLVEYGGDIDGERLAYFRLLDEFF
Q: B1 was tested. Which kcat/Km [1] did it give?
A: Its kcat/Km is 400000 M⁻¹ s⁻¹.

Q: And the kcat/Km [2]?
A: Its kcat/Km is 360000 M⁻¹ s⁻¹.

Q: And the kcat/Km [3]?
A: The kcat/Km was 120000 M⁻¹ s⁻¹.

Q: And the kcat/Km [4]?
A: The kcat/Km was 170000 M⁻¹ s⁻¹.

Q: What about the kcat/Km [5] of the same protein?
A: The kcat/Km was 190000 M⁻¹ s⁻¹.

Q: What about the Km [6] of the same protein?
A: Its Km is 440 µM.

Q: What about the Km [7] of the same protein?
A: Its Km is 3.1 µM.

Q: And the Km [8]?
A: The Km was 17.5 µM.

Q: And the Km [9]?
A: The Km was 10.3 µM.

Q: And the Km [10]?
A: The Km was 10 µM.
